B1: hPLIC2 ubiquitin-like (UBL) domain (domain or fragment, human, UniProt Q9UHD9 33-107, looked up)
chain: IKVTVKTPKEKEEFAVPENSSVQQFKEAISKRFKSQTDQLVLIFAGKILKDQDTLIQHGIHDGLTVHLVIKSQNR
B2: GST-hRpn13^Pru (domain or fragment, human)
chain: TTSGALFPSLVPGSRGASNKYLVEFRAGKMSLKGTTVTPDKRKGLVYIQQTDDSLIHFCWKDRTSGNVEDDLIIFPDDCEFKRVPQCPSGRVYVLKFKAGSKRLFFWMQEPKTDQDEEHCRKVNEYLNNPPMPGALGASGSSGHELSAL

Experiments:
[1] = biological target: hRpn13 pleckstrin-like receptor for ubiquitin (Pru) domain (human, UniProt Q16186 1-150); experiment: ITC
M1 diubiquitin = M1 diubiquitin (UniProt P0CG48 1-76; P0CG48 1-76); experiment: pull-down

hRpn13 pleckstrin-like receptor for ubiquitin (Pru) domain, sequence (Q16186 1-150): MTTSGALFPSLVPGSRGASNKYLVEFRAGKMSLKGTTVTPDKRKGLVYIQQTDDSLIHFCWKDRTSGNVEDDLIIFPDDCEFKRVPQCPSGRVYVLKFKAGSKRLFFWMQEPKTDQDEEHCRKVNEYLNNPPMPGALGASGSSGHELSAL

Binder	Kd [1] [µM]	binding result (M1 diubiquitin)
B1	9.3 ± 0.5	
B2		binds
